Laboratory results from patent US20250082771A1, “DOSAGE REGIMEN OF AN ANTI-CDH6 ANTIBODY-DRUG CONJUGATE” (DAIICHI SANKYO COMPANY, LIMITED, priority 2022, published 2025).

Tested on: RCC and OVC subjects
Assay: Phase 1 dose escalation part: safety and tolerability (TEAEs, DLT, RDE)
Format: in vivo, human
Description: The dose escalation part of the Phase 1 study was a multicenter, open-label, multiple-dose, first-in-human study of DS-6000a, which enrolled subjects in the United States (see clinicaltrials.gov identifier NCT 04707248). DS-6000a was administered intravenously every 3 weeks. In the dose escalation part, RCC and OVC subjects were enrolled and dose-limiting toxicity (DLT) was assessed during Cycle 1.
The primary objective of the dose escalation part was to investigate the safety and tolerability and determine the maximum-tolerated dose (MTD) and/or recommended dose for expansion (RDE).
Patient assessments included echocardiogram or multigated acquisition scan, 12-lead electrocardiogram, AEs, PK, human anti-human antibodies, biomarkers, and tumor assessments at prespecified visits. The demographic and baseline characteristics of the patient enrolled in this dose escalation part of the Phase 1 study are shown in FIG. 2.
For this dose escalation part of the Phase 1 study, Bayesian optimal interval (BOIN) design was used to estimate the MTD. Accelerated titration, treat a single subject at a dose level, was performed until any DLT or ≥Grade 2 AE possibly related to DS-6000a (excluding infusion-related reactions) is observed during Cycle 1. Objective response rate (ORR), clinical benefit rate (CBR), and disease control rate (DCR) were summarized with 95% confidence intervals (CI) using the Clopper-Pearson method; duration of response (DOR) and progression-free survival (PFS) were summarized using the Kaplan-Meier method. Safety endpoints, PK parameters and plasma anti-drug antibodies were summarized using descriptive statistics.

Substance: DS-6000a: anti-CDH6 antibody (SEQ ID NO: 69 positions 20-471; SEQ ID NO: 61 positions 21-233) bound via thioether bond to drug linker; DAR 7 to 8
- patients discontinued due to PD per RECIST V1.1 (1.6 mg/kg): 1 patients
- patients discontinued due to clinical progression (3.2 mg/kg): 1 patients
- patients discontinued due to death (3.2 mg/kg): One
- patients required dose interruption (3.2 mg/kg): 1 patients
- patients discontinued due to clinical progression (4.8 mg/kg): 1 patients
- patients required dose interruption (4.8 mg/kg): 2 patients
- patients discontinued due to PD per RECIST V1.1 (6.4 mg/kg): 2 patients
- patients discontinued due to clinical progression (6.4 mg/kg): 1 patients
- patients required dose interruption (6.4 mg/kg): 3 patients
- patients discontinued due to PD per RECIST V1.1 (8.0 mg/kg): 2 patients
- patients discontinued due to clinical progression (8.0 mg/kg): 1 patients
- patients required dose interruption (8.0 mg/kg): 1 patients
- patients required dose reduction (8.0 mg/kg): 1 patients
- patients discontinued due to adverse event (9.6 mg/kg): One
- patients required dose interruption (9.6 mg/kg): 2 patients
- patients required dose reduction (9.6 mg/kg): 2 patients
- DLTs (9.6 mg/kg, Cycle 1, Gr3 febrile neutropenia and Gr4 platelet count decreased): Two
- serious TEAEs considered drug-related (Grade 3 anaemia and Grade 3 febrile neutropenia at 9.6 mg/kg): Two
- RDE (recommended dose for expansion) (IV every 3 weeks): 8.0 mg/kg
- grade of serious TEAEs (N=30): all events are Grade 3
- patients with serious TEAEs (N=30 (4/30)): 13.3%
- patients reported Grade 23 related TEAE (N=30 (7/30), drug-related): 23.3%
- patients reported Grade 23 TEAE (N=30 (10/30), regardless of causality): 33.3%
- patients discontinued from treatment (N=30 (13 patients)): 43.3%
- patients with drug-related TEAEs (N=30 (25 patients)): 83.3%
- patients reported 21 TEAE (N=30 (26/30), regardless of causality, IV every 3 weeks): 86.7%
- patients discontinued due to PD per RECIST V1.1 (N=30, all dose levels): 5 patients
- patients discontinued due to clinical progression (N=30, all dose levels): Four
- patients required dose interruption (N=30, all dose levels): Nine
- patients required dose reduction (N=30, all dose levels): three
- Grade 23 related TEAE neutrophil count decreased (N=30, drug-related): 16.7%
- related TEAE decreased appetite (N=30, drug-related): 20.0%
- related TEAE fatigue (N=30, drug-related): 56.7%
- related TEAE nausea (N=30, drug-related): 60.0%
- related TEAE neutrophil count decreased (N=30, drug-related): 23.3%
- related TEAE vomiting (N=30, drug-related): 30.0%
- Grade 23 TEAE anaemia (N=30, regardless of causality): 10.0%
- Grade 23 TEAE hypokalemia (N=30, regardless of causality): 10.0%
- Grade 23 TEAE neutrophil count decreased (N=30, regardless of causality): 16.7%
- TEAE decreased appetite (N=30, regardless of causality): 40.0%
